The record followed here is paper PMC6370785.

By stoichiometry N is commonly meant a count of units in the complex or per binding partner.

In experiment [1] the target is soluble TRAIL (sTRAIL), secretable trimer-forming variant of human TRAIL (human | yeast) (UniProt P50591). Kind of experiment: SDS-PAGE and Western blot without cross-linker; 293T culture supernatant (48 h after transfection) without BS3, 4-20% SDS-PAGE, Western blot with anti-TRAIL. (In western blotting, separated proteins are transferred to a membrane and probed.)
For experiment [2] the target is unchanged. In words: cross-linking; 293T culture supernatant (48 h after transfection) with 1 mM BS3, 4-20% SDS-PAGE, Western blot with anti-TRAIL.
Experiment [3] deals with recombinant human TRAIL/Apo2 Ligand (rhTRAIL) (human) (UniProt P50591). Kind of experiment: SDS-PAGE and Western blot; 100 ng rhTRAIL as positive control on the same blot; whether BS3 was added to it is not told.

Take “soluble TRAIL (sTRAIL), secretable trimer-forming variant of human TRAIL (from UniProt P50591 114-281) (ligand)”: the stoichiometry N in experiment [1] worked out at 2; in experiment [2] it was 3. In the case of “recombinant human TRAIL/Apo2 Ligand (rhTRAIL) (from UniProt P50591 1-281)”, the stoichiometry N in experiment [3] was determined as 3.
